Data on eleven molecules can be found in patent US20260167739A1 (PHANES THERAPEUTICS, published 2026).

To fix the notation:
T1: human 5T4 (32-355) tagged with poly-his at the C-terminus (ACROBiosystems, CAT #TPG-H52E5) (human, UniProt Q13641 32-355)
T1 construct: range 32-355; Bought protein; also called recombinant human 5T4; recombinant 5T4 Ser32-Ser355; not shown: C-terminal poly-his tag
T1 sequence (looked up): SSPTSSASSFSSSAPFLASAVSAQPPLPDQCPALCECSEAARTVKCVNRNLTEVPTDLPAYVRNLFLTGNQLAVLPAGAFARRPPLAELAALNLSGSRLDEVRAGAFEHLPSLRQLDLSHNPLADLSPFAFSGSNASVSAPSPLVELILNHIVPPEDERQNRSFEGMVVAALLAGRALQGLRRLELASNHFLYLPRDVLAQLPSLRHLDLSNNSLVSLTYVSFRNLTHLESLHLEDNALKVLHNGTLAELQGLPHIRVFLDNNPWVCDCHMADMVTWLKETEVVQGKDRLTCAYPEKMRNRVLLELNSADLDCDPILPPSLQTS

B1: S3C7-C (antibody, V domains shown)
VH: EVKLVESGGGLVNTGGSLKLSCAASGFNFSHYYMYWVRQTPEKRLEWVAYIGNSGGSTYNPDTVKGRFTISRDNAKNTLYLQMSRLKSEDTAIYYCARQNYYSGSFYFDSWGQGTTITVSS
VL: NIVLTQSPTSMSMSVGERVTLSCKASENVGTYVSWYQQKPEQSPKLLIYGKSNRYTGVPDRFTGSGSAPDFTLTISSVQAEDLADYYCGQSYSFPFTFGTGTKLEIK
notes: Mouse VH and VL fused to human IgG1 heavy and kappa light constant regions; also called chimeric version of S3C7
B2: S2F4-C (antibody, V domains shown)
VH: EVQLVESGGGLVKPGGSLKLSCAASGFTFSDYGMHWVRQAPEKGLEWIAYISFGSSTIYYADTVKGRFTISRDNAKNTLFLQMTSLRSEDTAMYYCARTHGYYRSWFAYWGQGTLVTVSA
VL: DIVLTQSPASLAVSLGQRATISCRASQSVSTSSYSYMNWYQQKPGQPPKLLIKYASNLESGVPARFSGSGSGTDFTLNIHPVEEEDTATYYCQHSWEIPLTFGAGTKLELK
notes: Mouse VH and VL fused to human IgG1 heavy and kappa light constant regions; also called chimeric version of S2F4
B3: L2B11-C (antibody, V domains shown)
VH: EVKLVESEGGLVQPGSSMKLSCTASGFTFSDYYMAWVRQVPEKGLEWVGNINYDGSRTYYLDSLKSRFIISRDNGKNILYLQMSSLKSEDTATYYCAREGDNYGNSHYAMDYWGQGTSVTVSS
VL: DVLMTQTPLSLPVSLGDQASISCRSSQSFVHSNGNTYLEWYLQKPGQSPKLLIYKVSNRFSGVPDRFTGSGSGTDFTLKISRVEAEDLGVYYCFQGSHVPLTFGAGTRLELK
notes: Mouse VH and VL fused to human IgG1 heavy and kappa light constant regions; also called chimeric version of L2B11
B4: L1F2-C (antibody, V domains shown)
VH: QVHLQQSGAELVRPGTSVKVSCKASGYAFTNYVIEWVKQRPGQGLEWIGVINPGSGGTNYNENFKGKATLTADKSSSTAYMQLSSLTSEDSAVYFCARGTVELYAMDYWGQGTSVTVSS
VL: DIQMTQTTSSLSASLGDRVTISCRASQDISYYLNWYQQKPDGTVKLLISYTSRLHSGVPSRFSGSGSGTDYSLTISNLEQEDIATYFCQQDIKHPYTFGGGTELEIK
notes: Mouse VH and VL fused to human IgG1 heavy and kappa light constant regions; also called chimeric version of L1F2
B5: L3D5-C (antibody, V domains shown)
VH: GVQLQQSGPELVKPGASVKISCKASGYTFTDFYMNWVKQSHGKSLEWIGDINPNNGVTTYNQKFKDKATLTVDKSSSTAYMELRSLTSEDSAVYYCATGAIHYGYDGYFDVWGAGTTVTVSS
VL: DIVMTQSPATLSVTPGDRVSLSCRASQSISDYLHWYQQKSHESPRLLIKYASQSISGIPSRFSGSGSGSDFTLSINSVEPEDVGVYYCQNGHSFPLTFGAGTKLELK
notes: Mouse VH and VL fused to human IgG1 heavy and kappa light constant regions; also called chimeric version of L3D5
B6: L1D8-CR11-C (antibody, V domains shown)
VH: QVQLQQSGAELMKPGASLKLSCKATGYTFTGYWIEWVKQRPGHGLEWIGEILPGRSSTNYNERFKGKAIFTADTSSNTAYMQLSSLTTEDSAIYYCARGRRDFDYWGQGTTITVSS
VL: SIVMTQTPKFLPVSAGDRVTMTCKASQSVGNNVAWYQQKPGQSPKVLIYDASNRYTGVPDRFTGSGSGTDFTFTISSVQVEDLAVYFCQQYYSSPPTFGAGTKLELK
notes: Mouse VH and VL fused to human IgG1 heavy and kappa light constant regions; also called chimeric version of L1D8-CR11; LID8-CR11
B7: L1D8-CR21-C (antibody, V domains shown)
VH: QVQLQQSGAELMKPGASLKLSCKATGYTFTGSWIEWVKQRPGHGLEWIGEILPGRSSTNYNERFKGKAIFTADTSSNTAYMQLSSLTTEDSAIYYCARGRRDFDYWGQGTTITVSS
VL: SIVMTQTPKFLPVSAGDRVTMTCKASQSVGNNVAWYQQKPGQSPKVLIYDASNRYTGVPDRFTGSGSGTDFTFTISSVQVEDLAVYFCQQYYSSPPTFGAGTKLELK
notes: Mouse VH and VL fused to human IgG1 heavy and kappa light constant regions; also called chimeric version of L1D8-CR21; LID8-CR21
B8: L1C7-C (antibody, V domains shown)
VH: EFQLQQSGPEVVKPGASVKISCKASGYSFTVYNMNWVKQSNGKSLDWIGVINPNYGTVTYNQKFKGKATLTVDQSSSTAYMQLNSLSSEDSAVYYCATTATWGQGTTLTVSS
VL: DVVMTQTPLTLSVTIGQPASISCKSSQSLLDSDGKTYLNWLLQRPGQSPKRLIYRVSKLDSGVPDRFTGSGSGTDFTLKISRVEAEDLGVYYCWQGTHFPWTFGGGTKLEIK
notes: Mouse VH and VL fused to human IgG1 heavy and kappa light constant regions; also called chimeric version of L1C7
B9: L3F10-C (antibody, V domains shown)
VH: EVKLVESGGGLVNTGGSLKLSCAASGFTFSDYFMYWVRQTPDKRLEWVAYISNSGGNTYYPDTVKGRFTISRDNAKNTLYLQMSRLKSEDTAMYFCTRPRPYGGYYAGIYYAMDYWGQGTSVTVSS
VL: DIQMTQTTSSLSASLGDRVTISCRASQDISNYLNWYQQKPDGTVKLLIYYTSRLHSGVPSRFSGSGSGTDYSLTISNLEPEDIATYYCQQYSKLPLTFGAGTKLELK
notes: Mouse VH and VL fused to the constant regions of human IgG1 heavy chain and kappa light chain; also called chimeric version of L3F10
B10: L3E1-C (antibody, V domains shown)
VH: QVQLQQFGAELVKPGAAVKMSCKASGYTFTSYWITWVKQRPGQGLDWIGDIYPGGGSTNYHEKFKSKATLTVDTSSSTAYMQLSSLTSEDSAVYYCARGLRDFDYWGQGTTITVSS
VL: DIQMTQTASSLSASLGDRVTISCRASQHINNYLNWYQQKPDGTVKLLIYSTSRLHSGVPSRFSGSGSGTDFSLTISNLEPEDIATYYCQQYSKLPRTFGGGTKLEIK
notes: Mouse VH and VL fused to human IgG1 heavy and kappa light constant regions; also called chimeric version of L3E1
B11: L1H7-C (antibody, V domains shown)
VH: QVQLQQSGPELVKPGASVKISCKASGYAFSSSWMNWVKQRPGKGLEWIGRIYPGNGNTNYNGKFKGKATLTADKSSSTAYMQLNSLTSEDSAVYFCASRFAYWGQGTLVAVSA
VL: DIVLTQSPASLAVSLGQRATISCRASKSVSTSGYSYMHWYQQKPGQPPKLLIYLASNLESGVPARFSGSGSGTDFTLNIHPVEEEDAATYYCQHSRELRTFGGGTKLEIK
notes: Mouse VH and VL fused to human IgG1 heavy and kappa light constant regions; also called chimeric version of L1H7

In this experiment the target is T1, human 5T4 (32-355) tagged with poly-his …. The experiment can be described thus: ELISA, 5T4-His coated on the plate. The text has this:
FIGS. 1A-IC show the binding of purified chimeric anti-5T4 mAbs (VH and VL regions of mouse mAb fused to the constant regions of human IgG1 heavy chain and kappa light chain, respectively) to immobilized recombinant 5T4 in an ELISA assay. The antigen was human 5T4 (32-355) tagged with poly-his at the C-terminus (ACROBiosystems, CAT #TPG-H52E5). L3F10-C, the chimeric version of L3F10; the same naming rule is used for the rest of the antibodies. Isotype Control (IgG1), a negative control antibody.
Purified chimeric mAbs were tested in an ELISA assay for their ability to bind to immobilized 5T4. Recombinant human 5T4 (ACROBiosystems, CAT #TPG-H52E5) in PBS was coated onto a 96-well plate (Corning, CAT #3361) at 4° C. overnight. The next day, plates were blocked using 5% BSA in TBST for 1 hour at room temperature and washed using TBST. Antibody samples at various concentrations in 5% BSA in TBST were added to the wells and incubated for 1 hour at room temperature. Plates were washed with TBST and bound antibody was labeled using mouse anti-human IgG Fc HRP (Thermo, CAT #H10007) for 1 hour at room temperature. Plates were washed again using TBST, and then ELISAs were developed using 1 Step Ultra TMB detection reagent (Thermo, CAT #34028) for 4 minutes before being quenched with ELISA stop solution (Thermo. CAT #SS04). Plates were quantified by measuring absorbance at 450 nm by plate reader.
B1: the binding result is given as “binds”.
On to B2, for which the binding result is given as “binds”.
For the molecule B3, the binding result is reported as “binds”.
Then B4, with “binds”; and B5, with “binds”; and B6, with “binds”.
In the case of B7 it was “binds”; in that of B8, “binds”; in that of B9, “binds”.
Then B10, with “binds”.
Take B11: the binding result is recorded as “binds”.
